B2: GST-tagged Vam3 (Vam3 1-260, ΔTMD) (domain or fragment)
chain: MSFFDIEAQSSKGNSQQEPQFSTNQKTKELSNLIETFAEQSRVLEKECTKIGSKRDSKELRYKIETELIPNCTSVRDKIESNILIHQNGKLSADFKNLKTKYQSLQQSYNQRKSLFPLKTPISPGTSKERKDIHPRTEAVRQDPESSYISIKVNEQSPLLHNEGQHQLQLQEEQEQQQQGLSQEELDFQTIIHQERSQQIGRIHTAVQEVNAIFHQLGSLVKEQGEQVTTIDENISHLHDNMQNANKQLTRADQHQRDRN

Assay in all cases: pull-down
Test [1] addresses HOPS (homotypic fusion and protein sorting) complex (yeast (S. cerevisiae), UniProt P38959;Q07468;P20795;P12868;Q03308;P27801).
Another test has as its target T1, His-tagged Vam7 (1-316) (S. cerevisiae, UniProt P32912 1-316).
T1 sequence: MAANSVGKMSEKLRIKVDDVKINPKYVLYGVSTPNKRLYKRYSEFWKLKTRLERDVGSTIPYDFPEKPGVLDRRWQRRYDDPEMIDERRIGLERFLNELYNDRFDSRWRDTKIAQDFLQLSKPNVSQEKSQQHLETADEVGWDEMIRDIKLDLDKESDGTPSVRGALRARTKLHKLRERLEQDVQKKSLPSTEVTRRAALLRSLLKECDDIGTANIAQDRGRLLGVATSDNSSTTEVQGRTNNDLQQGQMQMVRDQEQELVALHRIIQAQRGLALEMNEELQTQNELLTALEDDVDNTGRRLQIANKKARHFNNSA

Test [2] has as its target B2.
In test [3] the target is T2, Vps16 (individual HOPS subunit, TAP-purified) (yeast (S. cerevisiae), UniProt Q03308 1-798).
T2 sequence: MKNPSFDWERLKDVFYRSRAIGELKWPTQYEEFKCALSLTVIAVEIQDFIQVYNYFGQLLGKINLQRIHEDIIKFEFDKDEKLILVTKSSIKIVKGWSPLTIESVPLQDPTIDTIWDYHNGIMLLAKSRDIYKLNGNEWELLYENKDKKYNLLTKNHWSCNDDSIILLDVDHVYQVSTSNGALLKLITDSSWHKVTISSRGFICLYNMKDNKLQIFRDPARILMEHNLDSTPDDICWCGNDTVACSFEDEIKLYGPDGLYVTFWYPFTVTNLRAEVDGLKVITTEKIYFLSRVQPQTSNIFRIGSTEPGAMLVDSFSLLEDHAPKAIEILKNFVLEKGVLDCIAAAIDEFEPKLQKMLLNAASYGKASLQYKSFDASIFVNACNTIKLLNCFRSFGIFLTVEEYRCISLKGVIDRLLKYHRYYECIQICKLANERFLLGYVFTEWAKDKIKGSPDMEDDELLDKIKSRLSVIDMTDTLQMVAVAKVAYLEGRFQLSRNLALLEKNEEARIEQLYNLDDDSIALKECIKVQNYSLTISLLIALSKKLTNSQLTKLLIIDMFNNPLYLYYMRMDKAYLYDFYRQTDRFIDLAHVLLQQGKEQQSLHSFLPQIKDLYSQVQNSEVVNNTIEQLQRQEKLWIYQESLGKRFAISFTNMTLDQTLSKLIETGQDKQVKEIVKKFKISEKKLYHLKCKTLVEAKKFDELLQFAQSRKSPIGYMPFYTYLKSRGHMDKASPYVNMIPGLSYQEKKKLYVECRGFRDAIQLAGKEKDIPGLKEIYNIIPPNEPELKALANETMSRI

We go through 8 molecules from paper PMC3135484 (Molecular Biology of the Cell, 2011).

B1: GST-tagged Vam7 PX domain (1-129) (domain or fragment)
chain: MAANSVGKMSEKLRIKVDDVKINPKYVLYGVSTPNKRLYKRYSEFWKLKTRLERDVGSTIPYDFPEKPGVLDRRWQRRYDDPEMIDERRIGLERFLNELYNDRFDSRWRDTKIAQDFLQLSKPNVSQEK
Turning to B1, the binding result in test [1] is on record as “binds”.

For B2, the binding result with His-tagged Vam7 (1-316) is “binds”.

B3: SNARE complex assembled on GST-Vam7 SD with Vam3, Vti1 and Ykt6 (complex)
chain 1: PSTEVTRRAALLRSLLKECDDIGTANIAQDRGRLLGVATSDNSSTTEVQGRTNNDLQQGQMQMVRDQEQELVALHRIIQAQRGLALEMNEELQTQNELLTALEDDVDNTGRRLQIANKKARHFNNSA
chain 2: MSFFDIEAQSSKGNSQQEPQFSTNQKTKELSNLIETFAEQSRVLEKECTKIGSKRDSKELRYKIETELIPNCTSVRDKIESNILIHQNGKLSADFKNLKTKYQSLQQSYNQRKSLFPLKTPISPGTSKERKDIHPRTEAVRQDPESSYISIKVNEQSPLLHNEGQHQLQLQEEQEQQQQGLSQEELDFQTIIHQERSQQIGRIHTAVQEVNAIFHQLGSLVKEQGEQVTTIDENISHLHDNMQNANKQLTRADQHQRDRNKCGK
chain 3: MSSLLISYESDFKTTLEQAKASLAEAPSQPLSQRNTTLKHVEQQQDELFDLLDQMDVEVNNSIGDASERATYKAKLREWKKTIQSDIKRPLQSLVDSGDRDRLFGDLNASNIDDDQRQQLLSNHAILQKSGDRLKDASRIANETEGIGSQIMMDLRSQRETLENARQTLFQADSYVDKSIKTLKTMTRR
chain 4: MRIYYIGVFRSGGEKALELSEVKDLSQFGFFERSSVGQFMTFFAETVASRTGAGQRQSIEEGNYIGHVYARSEGICGVLITDKEYPVRPAYTLLNKILDEYLVAHPKEEWADVTETNDALKMKQLDTYISKYQDPSQADAIMKVQQELDETKIVLHKTIENVLQRGEKLDNLVDKSESLTASSKMFYKQAKKSNSCCIIM
Turning to B3, in test [1], the binding result is given as “binds”.

B4: Q-SNARE complex assembled on GST-Vam7 SD with Vam3 and Vti1 (complex)
chain 1: PSTEVTRRAALLRSLLKECDDIGTANIAQDRGRLLGVATSDNSSTTEVQGRTNNDLQQGQMQMVRDQEQELVALHRIIQAQRGLALEMNEELQTQNELLTALEDDVDNTGRRLQIANKKARHFNNSA
chain 2: MSFFDIEAQSSKGNSQQEPQFSTNQKTKELSNLIETFAEQSRVLEKECTKIGSKRDSKELRYKIETELIPNCTSVRDKIESNILIHQNGKLSADFKNLKTKYQSLQQSYNQRKSLFPLKTPISPGTSKERKDIHPRTEAVRQDPESSYISIKVNEQSPLLHNEGQHQLQLQEEQEQQQQGLSQEELDFQTIIHQERSQQIGRIHTAVQEVNAIFHQLGSLVKEQGEQVTTIDENISHLHDNMQNANKQLTRADQHQRDRNKCGK
chain 3: MSSLLISYESDFKTTLEQAKASLAEAPSQPLSQRNTTLKHVEQQQDELFDLLDQMDVEVNNSIGDASERATYKAKLREWKKTIQSDIKRPLQSLVDSGDRDRLFGDLNASNIDDDQRQQLLSNHAILQKSGDRLKDASRIANETEGIGSQIMMDLRSQRETLENARQTLFQADSYVDKSIKTLKTMTRR
Take B4: the binding result in test [1] is on record as “binds”.

B5: His-tagged Vti1 (1-189, ΔTMD) (domain or fragment)
chain: MSSLLISYESDFKTTLEQAKASLAEAPSQPLSQRNTTLKHVEQQQDELFDLLDQMDVEVNNSIGDASERATYKAKLREWKKTIQSDIKRPLQSLVDSGDRDRLFGDLNASNIDDDQRQQLLSNHAILQKSGDRLKDASRIANETEGIGSQIMMDLRSQRETLENARQTLFQADSYVDKSIKTLKTMTRR
Consider B5, for which the binding result in test [2] is reported as “binds”.

B6: His-tagged Ykt6 (1-200) (natural protein)
chain: MRIYYIGVFRSGGEKALELSEVKDLSQFGFFERSSVGQFMTFFAETVASRTGAGQRQSIEEGNYIGHVYARSEGICGVLITDKEYPVRPAYTLLNKILDEYLVAHPKEEWADVTETNDALKMKQLDTYISKYQDPSQADAIMKVQQELDETKIVLHKTIENVLQRGEKLDNLVDKSESLTASSKMFYKQAKKSNSCCIIM
Regarding B6, the binding result in test [2] was “binds”.

B7: minimal SNARE complex assembled on GST-Vam7 SD with Vam3ΔN, Vti1 and Ykt6 (complex)
chain 1: PSTEVTRRAALLRSLLKECDDIGTANIAQDRGRLLGVATSDNSSTTEVQGRTNNDLQQGQMQMVRDQEQELVALHRIIQAQRGLALEMNEELQTQNELLTALEDDVDNTGRRLQIANKKARHFNNSA
chain 2: ESSYISIKVNEQSPLLHNEGQHQLQLQEEQEQQQQGLSQEELDFQTIIHQERSQQIGRIHTAVQEVNAIFHQLGSLVKEQGEQVTTIDENISHLHDNMQNANKQLTRADQHQRDRNKCGK
chain 3: MSSLLISYESDFKTTLEQAKASLAEAPSQPLSQRNTTLKHVEQQQDELFDLLDQMDVEVNNSIGDASERATYKAKLREWKKTIQSDIKRPLQSLVDSGDRDRLFGDLNASNIDDDQRQQLLSNHAILQKSGDRLKDASRIANETEGIGSQIMMDLRSQRETLENARQTLFQADSYVDKSIKTLKTMTRR
chain 4: MRIYYIGVFRSGGEKALELSEVKDLSQFGFFERSSVGQFMTFFAETVASRTGAGQRQSIEEGNYIGHVYARSEGICGVLITDKEYPVRPAYTLLNKILDEYLVAHPKEEWADVTETNDALKMKQLDTYISKYQDPSQADAIMKVQQELDETKIVLHKTIENVLQRGEKLDNLVDKSESLTASSKMFYKQAKKSNSCCIIM
Turning to B7, in test [1], the binding result is on record as “binds”.

B8: GST-tagged Vam7 (1-316) (natural protein)
chain: MAANSVGKMSEKLRIKVDDVKINPKYVLYGVSTPNKRLYKRYSEFWKLKTRLERDVGSTIPYDFPEKPGVLDRRWQRRYDDPEMIDERRIGLERFLNELYNDRFDSRWRDTKIAQDFLQLSKPNVSQEKSQQHLETADEVGWDEMIRDIKLDLDKESDGTPSVRGALRARTKLHKLRERLEQDVQKKSLPSTEVTRRAALLRSLLKECDDIGTANIAQDRGRLLGVATSDNSSTTEVQGRTNNDLQQGQMQMVRDQEQELVALHRIIQAQRGLALEMNEELQTQNELLTALEDDVDNTGRRLQIANKKARHFNNSA
For the molecule B8, the binding result in test [1] and in test [3] was “binds” throughout.
